Test results reported in patent publication US20210115153A1 (PEPTRON, published 2021).

Molecular target: T1, recombinant hMUC1-C (rhMUC1-C) protein (human, UniProt P15941 961-1152)
T1 construct: Expressed in E. coli Rosetta (not glycosylated), purified from inclusion bodies in 8 M urea over Ni-NTA; also called hMUC1-C terminal protein; not shown: C-terminal His-tag of vector pET-22b
T1 sequence: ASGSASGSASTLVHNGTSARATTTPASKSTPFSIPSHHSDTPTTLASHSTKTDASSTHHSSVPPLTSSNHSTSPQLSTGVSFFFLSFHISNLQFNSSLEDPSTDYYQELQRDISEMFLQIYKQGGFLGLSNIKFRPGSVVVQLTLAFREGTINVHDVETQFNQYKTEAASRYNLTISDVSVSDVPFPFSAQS
Experiment: ELISA of hybridoma culture supernatant on coated rhMUC1-C
Procedure: The total amount of rhMUC1-C-specific IgG was measured by ELISA. A 96-well immunoplate was coated with 10 […] of rhMUC1-C protein (Example 2) and blocked with bovine serum albumin (BSA) in PBS-T (PBS containing 0.1% (v/v) Tween-20). The mouse serum immunized in Example 5, hybridoma cell culture supernatant, or purified antibody was diluted with PBS-T and cultured at room temperature for 2 hours. The plate was washed 3 times with PBS-T and cultured with a goat anti-mouse IgG HRP-conjugated secondary antibody for 1 hour. The plate was developed using TMB substrate solutions A and B (1:1 ratio) (Kirkegaard and Perry Laboratories, Gaithersburg, Md., USA), the absorbance was measured at 450 nm using a Spectra Max 250 microplate reader (Molecular Devices, Sunnyvale, USA), and a colorimetric assay was performed.
The spleen cells from mice immunized with rhMUC1-C protein in Example 5 were fused with SP2/0 myeloma cells (ATCC) using polyethylene glycol (PEG, Sigma-Aldrich). The fused cells were cultured and selected as a hypoxanthine-aminopterin-thymidine (HAT, Sigma-Aldrich) medium. The culture supernatant of the selected hybridoma cells was subjected to testing for binding to rhMUC1-C protein through ELISA and hybridoma cells, which were positive for binding, i.e., produced rhMUC1-C protein-specific antibody, were screened. […]

B1: anti-hMUC1 monoclonal antibody purified from hybridoma hMUC1-1H7 (KCLRF-BP-00395) (antibody, V domains shown)
VH: EVQLQQSGAELAKPGASVKMSCKVSGYTFTSYWMHWVKQRPGQGLEWIGYINPGTGYIEYNQKFKDKATLTADKSSSTAYMQLSSLTSEDSAVYYCASSTAPFDYWGQGTTLTVSS
VL: DIVITQSPSSMYASLGERVTITCKASQDIKSYLSWYQQKPWKSPKTLIYYATRLADGVPSRFSGSGSGQDYSLTISSLESDDTATYYCLQYDESPYTFGGGTKLEIKR
notes: also called anti-hMUC1 antibody; anti-hMUC1-C mouse antibody (1H7)
- binding result: binds
